Source: patent US20230002496A1 (STAIDSON BEIJING BIOPHARMACEUTICALS, published 2023)
Positions count from the first letter of the chain named.

B1: E35-scFv LG50N (scFv, V domains shown)
VH: QMQLVQSGAEVKKPGASVKVSCKVSGYTLTELSIHWVRQAPGKGLEWMGGFDPEDGETIYAQKFQGRVTMTGDTSTDTAYLELSSLRSEDTALYYCATGRYTSLATTYGFDYWGQGTLVTVSS
VL: EIVMTQSPATLSLSPGERATLSCRASQSVSSYLAWYQQKPGQAPRLLIYNASSRATGIPDRFSGSGSGTDFTLTISRLEPEDFAVYYCQQYDNWPYTFGQGTKLEIK
B2: E35-scFv LD92L (scFv, V domains shown)
VH: B1 VH
VL: B1 VL with N50G, D92L
B3: E35-scFv LD92W (scFv, V domains shown)
VH: B1 VH
VL: B1 VL with N50G, D92W
B4: E35-scFv LN93L (scFv, V domains shown)
VH: B1 VH
VL: B1 VL with N50G, N93L
B5: E35-scFv LN93R (scFv, V domains shown)
VH: B1 VH
VL: B1 VL with N50G, N93R
B6: E35-scFv LD92H (scFv, V domains shown)
VH: B1 VH
VL: B1 VL with N50G, D92H
B7: E35-scFv LN93F (scFv, V domains shown)
VH: B1 VH
VL: B1 VL with N50G, N93F
B8: E35-scFv LD92G (scFv, V domains shown)
VH: B1 VH
VL: B1 VL with N50G, D92G
B9: E35-scFv LN93K (scFv, V domains shown)
VH: B1 VH
VL: B1 VL with N50G, N93K
B10: E35-scFv LD92K (scFv, V domains shown)
VH: B1 VH
VL: B1 VL with N50G, D92K
B11: E35-scFv LG50E (scFv, V domains shown)
VH: B1 VH
VL: B1 VL with N50E
B12: E35-scFv LN93P (scFv, V domains shown)
VH: B1 VH
VL: B1 VL with N50G, N93P
B13: E35-scFv LG50C (scFv, V domains shown)
VH: B1 VH
VL: B1 VL with N50C
B14: E35-scFv LN93S (scFv, V domains shown)
VH: B1 VH
VL: B1 VL with N50G, N93S
B15: E35-scFv LN93E (scFv, V domains shown)
VH: B1 VH
VL: B1 VL with N50G, N93E
B16: E35-scFv LD92V (scFv, V domains shown)
VH: B1 VH
VL: B1 VL with N50G, D92V
B17: E35-scFv LN93T (scFv, V domains shown)
VH: B1 VH
VL: B1 VL with N50G, N93T
B18: E35-scFv LG50H (scFv, V domains shown)
VH: B1 VH
VL: B1 VL with N50H
B19: E35-scFv LD92M (scFv, V domains shown)
VH: B1 VH
VL: B1 VL with N50G, D92M
B20: E35-scFv HE31D (scFv, V domains shown)
VH: B1 VH with E31D
VL: B1 VL with N50G
B21: E35-scFv HE31F (scFv, V domains shown)
VH: B1 VH with E31F
VL: B1 VL with N50G
B22: E35-scFv LN93H (scFv, V domains shown)
VH: B1 VH
VL: B1 VL with N50G, N93H
B23: E35-scFv LN93M (scFv, V domains shown)
VH: B1 VH
VL: B1 VL with N50G, N93M
B24: E35-scFv LG50Y (scFv, V domains shown)
VH: B1 VH
VL: B1 VL with N50Y
B25: E35-scFv LD92S (scFv, V domains shown)
VH: B1 VH
VL: B1 VL with N50G, D92S
B26: E35-scFv HE31M (scFv, V domains shown)
VH: B1 VH with E31M
VL: B1 VL with N50G
B27: E35-scFv LD92I (scFv, V domains shown)
VH: B1 VH
VL: B1 VL with N50G, D92I
B28: E35-scFv LD92Q (scFv, V domains shown)
VH: B1 VH
VL: B1 VL with N50G, D92Q
B29: E35-scFv LD92A (scFv, V domains shown)
VH: B1 VH
VL: B1 VL with N50G, D92A
B30: E35-scFv HE31P (scFv, V domains shown)
VH: B1 VH with E31P
VL: B1 VL with N50G
B31: E35-scFv LG50R (scFv, V domains shown)
VH: B1 VH
VL: B1 VL with N50R
B32: E35-scFv LD92T (scFv, V domains shown)
VH: B1 VH
VL: B1 VL with N50G, D92T
B33: E35-scFv LG50L (scFv, V domains shown)
VH: B1 VH
VL: B1 VL with N50L
B34: E35-scFv LN93Y (scFv, V domains shown)
VH: B1 VH
VL: B1 VL with N50G, N93Y
B35: E35-scFv LG50P (scFv, V domains shown)
VH: B1 VH
VL: B1 VL with N50P
B36: E35-scFv HE31S (scFv, V domains shown)
VH: B1 VH with E31S
VL: B1 VL with N50G
B37: E35-scFv LN93G (scFv, V domains shown)
VH: B1 VH
VL: B1 VL with N50G, N93G
B38: E35-scFv LD92P (scFv, V domains shown)
VH: B1 VH
VL: B1 VL with N50G, D92P
B39: E35-scFv HE31G (scFv, V domains shown)
VH: B1 VH with E31G
VL: B1 VL with N50G
B40: E35-scFv LN93D (scFv, V domains shown)
VH: B1 VH
VL: B1 VL with N50G, N93D
B41: E35-scFv LD92R (scFv, V domains shown)
VH: B1 VH
VL: B1 VL with N50G, D92R
B42: E35-scFv LN93A (scFv, V domains shown)
VH: B1 VH
VL: B1 VL with N50G, N93A
B43: E35-scFv LN93I (scFv, V domains shown)
VH: B1 VH
VL: B1 VL with N50G, N93I
B44: E35-scFv HE31N (scFv, V domains shown)
VH: B1 VH with E31N
VL: B1 VL with N50G

Target: T1, human GM-CSFRα, full length on cells (human, UniProt P15509 23-400)
T1 sequence: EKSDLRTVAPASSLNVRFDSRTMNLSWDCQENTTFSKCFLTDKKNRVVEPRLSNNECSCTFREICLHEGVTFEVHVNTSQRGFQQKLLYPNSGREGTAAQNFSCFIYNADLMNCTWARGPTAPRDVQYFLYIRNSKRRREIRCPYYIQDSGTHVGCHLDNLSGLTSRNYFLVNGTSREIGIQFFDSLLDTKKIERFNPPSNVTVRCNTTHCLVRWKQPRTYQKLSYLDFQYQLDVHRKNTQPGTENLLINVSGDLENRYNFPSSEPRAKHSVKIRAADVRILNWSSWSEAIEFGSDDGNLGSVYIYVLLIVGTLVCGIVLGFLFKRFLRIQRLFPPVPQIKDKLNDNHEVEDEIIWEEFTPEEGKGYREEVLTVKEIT
Assay: cell-based or functional assay

Row | Binder | IC50, TF-1 cell proliferation [µg/mL]
1 | B1 | 1.59
2 | B2 | 0.42
3 | B3 | 0.342
4 | B4 | 0.33
5 | B5 | 0.6
6 | B6 | 0.53
7 | B7 | 0.3
8 | B8 | 0.522
9 | B9 | 0.78
10 | B10 | 0.64
11 | B11 | 29.9
12 | B12 | 0.66
13 | B13 | 25.7
14 | B14 | 0.3
15 | B15 | 0.081
16 | B16 | 0.387
17 | B17 | 0.14
18 | B18 | 4.29
19 | B19 | 0.507
20 | B20 | 0.13
21 | B21 | 0.18
22 | B22 | 0.45

Row | Binder | IC50, TF-1 cell proliferation [µg/mL]
23 | B23 | 0.27
24 | B24 | 32
25 | B25 | 0.598
26 | B26 | 0.13
27 | B27 | 0.597
28 | B28 | 0.328
29 | B29 | 0.282
30 | B30 | 0.17
31 | B31 | 2.79
32 | B32 | 0.494
33 | B33 | 3.9
34 | B34 | 0.156
35 | B35 | 1.86
36 | B36 | 0.14
37 | B37 | 0.205
38 | B38 | 0.881
39 | B39 | 0.116
40 | B40 | 0.045
41 | B41 | 0.495
42 | B42 | 0.21
43 | B43 | 0.33
44 | B44 | 0.11
